Results taken from a protein production outcome set (Wang et al. 2014).

Assay: label from the status in PepcDB records

Row | Sequence | protein production
1 | MTESATASRSWHLQATIRRLVLTAFVAGQTGLASWFLLQVLPYHGGNVVEWLIVAVFAVLYLWIAFGFWIAVYGFLLRLLGGDRASLLKRHTPNELAATPLSKTAIVMPLYHEPVSWTLKGLKAIYLDLARSGRLDDFDFYILSDSQDPDVWLQEQQVWLKLVEELGAHGRLFYRRRRVNLNYKSGNVADFLRRWGSQYQYMVVLDADSLLAGDTIRTMVQVMNREPQVGILQTAPTIINARSAFARIQQFANRLYSPLFATGLAAIQMGDAAFWGHNAVIRVAPFMAHCGLPKLKGAGIWQGPIMSHDFVEAAFLGRAGYEVWLEPALGASYEESPPTLDDELARDQRWSKGNLQHAALMLFSPRLRLAHRFAFLNGIMAYASSPLWLLFLVLTTIAAVQLTIAPIDYFPDGRESPFPLWPEWRPTWAITLVVSTMALLFLPKFLAIVDVVAHRTLSGFGGFFRLLCSVLLEIVVSVLLAPIRMLAHSHSVVSALLNVRLSWAGQNRTEETGWREAAVRHLPGLIIGSAWSAFAWTLDPMFFLWSLPVSIPLALAAPTTVWLSRSSSGESLSRRGLLLTPEERTRMPLLDDARGFREEAESEVALTPVEQAVLIPAVNRLHRQLAGRGAKGLKKEVIEGELDACVSRGYRGIEKGRLSLLLEDPQALTALHRRAWSAPSDSFWGQRVRNLVLHAQGLQDL | failed
2 | MTEVDPRFEAWLSLETGIDAPSLGANALERAVLERARAMLAESSPRRPAVADAAALDAYWLRLNTWPEERQALIEALVVPETWFFRDREAFAELARLAGERLVREPARVLRILSVACSTGEEPYSAAMALLDAGIGPARFAIDAIDISGRAIDQAEHALYGRNAFRGYPLTFRDRYFSEVADGWQLNERVRRRVRFTQGNLFDETMDGEARYDFIFCRNALTYFHRDAQDHAIRRLDAQLADGGVIFVGPAETGPMMRHAMTPARSPLAFAFVRTPPAAKVPARAAPSQQQAPRPAVTGSPTVKPAAPEAASLAVRGGGAALPEHSAAVPVSLSTPLSVPPLRKVLPDLDDARQLTDAGRFDEAEYIIQDIVSLSAPEADTFYLLGVIAHARGRYADAGDFYRKTLYLDPEHYEALTHLAAVLDASGDAVGARQLMLRAQRAMARRDPAHPDAPNRPRGAPGLRRS | failed
3 | MTEVYDLEITTNATDFPMEKKYPAGMSLNDLKKKLELVVGTTVDSMRIQLFDGDDQLKGELTDGAKSLKDLGVRDGYRIHAVDVTGGNEDFKDESMVEKYEMSDDTYGKRTDSVRAWKKKMQEEQGSAAPMENESDKLNEEAAKNIMVGNRCEVTVGAQMARRGEVAYVGATKFKEGVWVGVKYDEPVGKNDGSVAGVRYFDCDPKYGGFVRPVDVKVGDFPELSIDEI | not failed
4 | MTFEIAFVLLSLLGMVIALILDKMRPGMILFSVVVLFLCAGILTPKEMLEGFSNKGMITVALLFLVSEGIRQSGALGQVVKKLLPQKRTTVFRAQLRLLPAVAFISAFLNNTPVVVIFAPIIKRWARTVHLPATKFLIPLSYVTILGGICTLIGTSTNLVVHGMILESGHEGFTMFELGKVGIFIAIAGIIYLFAFSKKLLPDARPDTAVPDEEVEEGDKLHRVEAVLGARFPGINKTLGEFNFKRHYGAEVKEIKKRNGQRFINNLEEVILREGDTLVVMADDTFIPTWGESSVFVLLANGNDNEPIPGKGKRWFALILLILMIAGATIGELPVVKEMFPDMKLDMFFFVSVTTIIMAWTKIFPARKYTKYISWDILITIACAFAISKAMVNSGVADKVAGFIIGMSHDYGPHVLLAVLFIITNLFTELITNNAAAALAFPLALSLSVQLGVDPTPFFVVICMAASASFSTPIGYQTNLIVQGIGNYKFMDFVRIGLPLNLITFLISIFLIPLIWPF | failed
5 | MTFEIVFVLLSLLGMMAALIADKMRPGMVLFSVVVLFLCVGILTPKEMLEGFSNKGMITVALLFLVSEGIRQSGTLGQVIKKLLPQGKTTVFKAQLRILPSVAFISAFLNNTPVVVIFAPIIKHWAKSVKLPATKFLIPLSYVTILGGICTLIGTSTNLVVHGMILEAGYEGFTMFELGKVGIFIAIAGIIYLFIFSKRLLPDARPDTAVPDEEVEEGEKLHRVEAVLGARFPGINKKLSDFNFQRHYGAEVKEIKTRNGQRYVDHLEDVVLREGDTLVVMADDTFIPTWGESSVFVLLTNGNDPDTSGKKKRWLALILLVLMIVGATVGELPATKEMFPDIKLDMFFFVCITTIIMAWTNIFPARKYTKYISWDILITIACAFAISKAMVNSGVADCVAGFIIGLSDDYGPHVLLAILFVITNLFTELITNNAAAALAFPLALSISAQLGVSPTPFFVVICMAASASFSTPIGYQTNLIVQGIGNYKFTDFVRIGLPLNIITFLISVILIPLIWNF | not failed
6 | MTFFTNYTNLALIAILLVSGGLLAWPALRRGRGGLSAAEATQLINRRNAVVIDLRAATDFAAGHLPSARQVAAGEIGAKIAQVAKNKSTPVLLVCQNGQQSQKAAREVQAAGYAEVHVLEGGVAAWQQAGMPVVKQGVAK | failed
7 | MTFKQVADDWLKQYANDVKVSSVRAREKAIQHAIERFNTKPIQTIKKHDYQRFVDDISAQYSKNYVDSIVASTNMIFKYAYDTRLIKAMPSEGIKRPKKKVSVELEHHHHHH | not failed
8 | MTFLSQLSTHADKAFLRRLFAIALPITLQSIMFSSRSLVDVLMLGQLGEAEIAAVGVAARATFVTTIMLVGVTTGGALLTAQYWGAGDKIGVRQSTSLTWMIAMVFAALAVCLFVFFPQPIMGLTTDSQEVIELGSSYLVISSASMFAVACVASMAVGLRAMHQPGLSTFFSGIGILSNVFLNWVLIFGHLGFPALGITGAAIATVISGAIEVGCLFGYLWLKKHIIAFGWGDIRASLVLDKITRFLSLSLPTTFNFLAWAGGLFAYHAIMGQAGVQGLAALSVMTPVESIALAMMIGLSNAAAVLVGNQLGAKNFEPVYYQAWATVILNVLIAFGVAVLLFFTNQLILDAFSALSAETRHLAEQFMVILALGVILRSVPMMVIVGVLRAGGDVKFCLYQDVFAQWIIGIPLAAFAAIYLGWEPQWVYLLFLTEEVVKWCICLPRMKSKKWMKNLIEK | not failed
9 | MTFRESVPFIVAIAATIPGILLRVVHPDISPLLMASLTGLAILGASFMLMWACEVAQMDIPQTLALAVVALIAVLPEYAVDMYFTWMAGQHPESNYAHYAIANMTGANRLLIGIGWSAIAILYALRFRKAVQLEEERRSELLFLALATAYALVIPLKGTLEWYDGVILVSLYVWYIRIASKRPCTDCEVEGPAEALAHLPRNTRRLTTLGLFLFAAGVILCDAELFSESLVASGKVLGINEFLLVQWLAPIASEAPEFIVAIMFATRGQASLALGSLISSKLNQWTLLVGMIPGVFAVSSGSINPPMPMDDHQMHELLLTAAQSLFAVVLLARMRLGLRGALVLLALFIGQFAAPLYEPYVENLLGIPHMPDGLHIVYSGLYIALALGMMLYRPGRLLQLREGLKV | failed
10 | MTFRGPSPPRFGHSMDLPAYAIEAEGLYKTYAGTKTSPEKRALNGIDLKIPRGSIFGLLGPNGAGKSTFINILAGLVRKSSGTVRIWGRDIDQRPRDARAAIGVVPQELAADVFFTPRESLEVQAGFYGVPKSERRTDELLNALGLGDKAGAYVRQLSGGMKRRLMVAKAMVHQPPVLILDEPTAGVDVELRRQLWQYVTSLNELGVTIVLTTHYLEEAQELCDEIAIINRGEVVACEPTAKLLSRMDSRNVVVTPESPVTAAPVLEGFDTKLRSGGAFSVSYRTGQSSVEQVLAAVRASGLHIKDIATEDPDLEDVFVALTYGDPNAADPTKDLEHHHHHH | failed
11 | MTFSSKLKSFCSRYFSSHEKDKYKALMKQKLLNPLSSSSPNYDEMIQENFKPHWIIGIDPNLSGALAVLKFDDKGSCSAQVNPY | failed
12 | MTFVLNTFGRLQLVDGQGSLVAFPEKGLLLLVYLLTTGEGSADRTSLARFLWGDADRDVALSTLRKLISRIKARQTELGINILSSQGNMVSLDRESLSSDLLLSETDEAVASFSLLKHLVKLLNQPFLGPVHCHSREFQHWLAEREKSHIDLLANTLKAVSQRAQSRTESELLRKAAIILFRTEPKDPDTLQLLIEIFKAEEEVESLRNHFEQRRISISRGIAVRTASDGGDTKPVLPALAPSREKHATAVSLEPEDISIAIPRLVLLPPRNQSIHPQAGFLAASLVEDITIGFCAFNSLQVIAPYSAVQIGHHMETQKAFFERHHVNYILDTRISNAGDDVTLFAQLIFFDQNQIVWAERFSLDHRDLVKDRRTVSRRIALSISSEIERHEALREDLNPAAYHRYLVGRRHLARLTLPNLRRARKEMKAALSVSPDFAPALSSMARTYSKEWLLTARGDIDLLKTAETLATQATETRPDFADGYREFGVAKLLQGAFDQSAEAMEVAESLAPHYADVIADYADTLVHCSLPAIALRKIERAIELNPLSPDTYFWTAAGANYALGEFEASLDYIGQMADASLADRLAAANWAMLGHQDKARTFVRRFREVNPDFDVDKWLSAVPSKEQWHKDLYREGLKKAGF | failed
